Laboratory results: US20130310317A1 (Bristol-Myers Squibb, published 2013)
Positions count from the first letter of the chain named. Values belong to the binder of their own block, whether it stands above or below them.

Columns and labels:
[1] = biological target: T1, recombinant human IGF-IR (human, UniProt P08069 31-932); assay: competitive ELISA: plate coated with 30 nM IGF-IR, clone bound first, then 10 nM biotinylated IGF-I as the blocked ligand, streptavidin-HRP/TMB, OD450
T1 construct: Bought (R&D Systems); also called insulin-like growth factor-I receptor; IGF-1R
Description: MaxiSorp™ plates (Nunc International, Rochester, N.Y.) were coated with 30 nM IGF-IR in PBS at 4° C. overnight followed by blocking in OptEIA buffer (BD biosciences, San Diego, Calif.) for 3 hours at room temperature. Purified fibronectin-based scaffold proteins in OptEIA buffer were bound to each well for 1 hour at room temperature at concentrations ranging from 50 pM to 1 μM. […] The excess ligand was removed by washing with PBST and bound ligand was detected with streptavidin-HRP (Pierce, Rockford, Ill.) using TMB detection reagents (BD biosciences) according to the manufacturer's instructions

[2] = biological target: T2, IGF-IR-Fc (human, UniProt P08069 31-932); assay: SPR (BIAcore); IGF-IR-Fc captured on Protein A, clone in solution
T2 construct: range 1-932; Made in house by transient transfection, captured on Protein A on CM5 chips for kinetic analysis; also called human IGF-IR-Fc fusion protein; recombinant, immobilized IGF-IR (BIAcore); not shown: hinge and constant regions of human IgG1
Description: One liter E. coli growths of selected optimized clones were prepared and the proteins were purified. Surface plasmon resonance (BIAcore) analysis was performed using recombinant, immobilized IGF-IR and solution-phase clones in order to determine binding kinetics and binding affinities.
(§1) The binding kinetics of fibronectin-based scaffold proteins binding proteins to the target was measured using BIAcore 2000 or 3000 biosensors (Pharmacia Biosensor). A capture assay was developed utilizing an IGF-IR-Fc fusion. A similar reagent had been described by Forbes et al. (Forbes et al. 2002, European J. Biochemistry, 269, 961-968). The extracellular domain of human IGF-IR (aa 1-932) was cloned into a mammalian expression vector containing the hinge and constant regions of human IgG1. Transient transfection of the plasmid produced a fusion protein, IGF-IR-Fc which was subsequently purified by Protein A chromatography and captured on Protein A immobilized on Biasensor CM5 chips by amine coupling. The kinetic analysis involved the capture of IGF-IR-Fc on Protein A followed by injection of the fibronectin-based scaffold protein in solution and regeneration of the Protein A surface by glycine pH 2.0. Sensorgrams were obtained at each concentration and were evaluated using a program Biaevaluation, BIA Evaluation 2.0 (BIAcore), to determine the rate constants kₐ (kₒₙ) and kd (koff) The dissociation constant, KD was calculated from the ratio of rate constants koff/kₒₙ. Typically, a concentration series (2 uM to 0 uM) of purified fibronectin-based scaffold protein was evaluated for binding to protein A captured human IGF-IR-Fc fusion protein.

[3] = biological target: T3, recombinant human insulin receptor (human, UniProt P06213-2 28-944, limits assumed); assay: SPR (BIAcore); IR amine-coupled to chip, clone at 10 µM, signal as % of insulin signal
T3 construct: Amine-coupled to a CM5 chip (8300 RU); also called IR
Description: One liter E. coli growths of selected optimized clones were prepared and the proteins were purified.
(§2) In brief, 60 ug/mL of IR diluted in acetate 4.5 was coupled/immobilized to a level of 8300 RU and 11.9 ug/mL of VEGF-R2-Fc diluted in acetate 5.0 was immobilized to a level of 9700 RU on flow cells 2 and 3. A blank reference surface was prepared on FC 1. […] Fibronectin-based scaffold proteins were diluted to 10 uM in HBS-EP (10 mM Hepes 150 mM NaCl 3 mM EDTA 0.05% Surfactant P20) and injected at 20 uL/min for 3 minutes over the flow cells at 25 C and dissociation was observed over 10 mins.

[4] = biological target: T1, recombinant human IGF-IR; assay: direct binding ELISA: plate coated with 10 nM IGF-IR, His-tagged clone detected with His-HRP probe, TMB, OD450
Description: MaxiSorp™ plates (Nunc International, Rochester, N.Y.) were coated with 10 nM IGF-IR in PBS at 4° C. overnight followed by blocking in PBS-casein buffer (Pierce) for 3 hours at room temperature. Purified fibronectin-based scaffold proteins in casein buffer were bound to each well for 1 hour at room temperature at a concentration of 5 nM. The plate was washed with PBST and 100 μl of a 1:4000 dilution of His-HRP probe (Pierce) was added to each well with incubation for 15 min at room temperature. The wells were washed 5 times with PBST and the bound HRP was detected with TMB detection reagents (BD biosciences) according to the manufacturer's instructions.

[5] = biological target: T3, recombinant human insulin receptor; assay: SPR (BIAcore), IR amine-coupled to chip
Description: as §2

[6] = biological target: T2, IGF-IR-Fc; assay: SPR (BIAcore); IGF-IR-Fc captured on Protein A, clone in solution; remark: listed apart in the source
Description: BIAcore analysis was performed using recombinant, immobilized IGF-IR and solution-phase clones in order to determine binding kinetics and binding affinities.
as §1

[7] = biological target: human IGF-IR on cells (human, UniProt P08069 31-1367); assay: cell-based or functional assay
[8] = biological target: T2, IGF-IR-Fc; assay: SPR (BIAcore); IGF-IR-Fc captured on Protein A, analyte in solution
Description: as §1

[9] = biological target: T1, recombinant human IGF-IR; assay: direct binding ELISA on coated IGF-IR

B1: 354F06 (designed binder)
chain: VSDVPRDLEVVAATPTSLLISWTTNLQVSRYYRITYGETGGNSPVQEFTVPKANTTATISGLKPGVDYTITVYAVTVSKGNRSYGPISINYRTHHHHHH
notes: Optimized derivative of 218C04
- binding result [1]: binds

B2: 339A01 (designed binder)
chain: VSDVPRDLEVVAATPTSLLISWSTALKVQRYYRITYGETGGNSPVQEFTVPKHSHTATISGLKPGVDYTITVYAVTKMRDYRPISINYRTHHHHHH
notes: as for B1
- Kd [2]: 0.565 nM
- koff [2]: 0.00067 s⁻¹
- kon [2]: 1.2e+06 M⁻¹ s⁻¹
- % IR Binding at 10 µM [3]: > 100%
- IC50 (read off the curve) [1]: ~1 nM

B3: 385A09 (designed binder)
chain: B2 chain with T24A, A25R, Q29A, H53N, S54V, H55Y, K77R, M78I, R82G
notes: FG loop optimized derivative of 338A06
- binding result [4]: binds

B4: 354F11 (designed binder)
chain: B2 chain with S23G, T24K, A25H, K27V, K52R, H53G, S54H, H55Y
notes: as for B1
- binding result [1]: binds

B5: 385H06 (designed binder)
chain: B2 chain with T24A, A25R, Q29A, H53N, S54V, H55Y, K77Q, M78L, R82S
notes: as for B3
- binding result [4]: binds

B7: 385E04 (designed binder)
chain: B2 chain with T24A, A25R, Q29A, H53N, S54V, H55Y, K77E, M78L, D80N, R82G
notes: as for B3
- binding result [9]: binds

B8: 387B01 (designed binder)
chain: B2 chain with T24A, A25R, Q29A, H53N, S54V, H55Y, K77S, M78L, R82G
notes: as for B3
- EC50 (read off the curve) [4]: ~1 nM
- binding result [5]: no binding (tested: 10 µM)
- Kd [6]: 0.067 nM
- koff [6]: 0.00044 s⁻¹
- kon [6]: 6.5e+06 M⁻¹ s⁻¹

B9: 354G09 (designed binder)
chain: B2 chain with S23P, T24Q, A25H, K27R, K52R, H53G, H55D
notes: as for B1
- binding result [1]: binds

B10: 385B04 (designed binder)
chain: B2 chain with T24A, A25R, Q29A, H53N, S54V, H55Y, K77A, M78Y, R82Q
notes: as for B3
- binding result [4]: binds

B11: 387A09 (designed binder)
chain: B2 chain with T24A, A25R, Q29A, H53N, S54V, H55Y, K77M, M78S, R82G
notes: as for B3
- binding result [9]: binds

B12: 386F10 (designed binder)
chain: B2 chain with T24A, A25R, Q29A, H53N, S54V, H55Y, K77L, M78L, R82G
notes: as for B3
- Kd [6]: 0.123 nM
- koff [6]: 0.00023 s⁻¹
- kon [6]: 1.9e+06 M⁻¹ s⁻¹

B16: 386A03 (designed binder)
chain: B2 chain with T24A, A25R, Q29A, H53N, S54V, H55Y, K77N, M78L, R82G
notes: as for B3
- Kd [6]: 0.088 nM
- koff [6]: 0.00046 s⁻¹
- kon [6]: 5.2e+06 M⁻¹ s⁻¹

B17: 385F08 (designed binder)
chain: B2 chain with T24A, A25R, Q29A, H53N, S54V, H55Y, K77S, M78L, R82A
notes: as for B3
- EC50 (read off the curve) [4]: ~0.9 nM

B24: 353F10 (designed binder)
chain: VSDVPRDLEVVAATPTSLLISWPTHYKVARYYRITYGETGGNSPVQEFTVPKHTYTATISGLKPGVDYTITVYAVTTTKGLRHYGPISINYRTHHHHHH
notes: as for B1
- Kd [2]: 0.056 nM
- koff [2]: 0.00021 s⁻¹
- kon [2]: 3.7e+06 M⁻¹ s⁻¹
- % IR Binding at 10 µM [3]: 1%
- IC50 (read off the curve) [1]: ~1 nM

B25: 354A10 (designed binder)
chain: VSDVPRDLEVVAATPTSLLISWSNRLVVKRYYRITYGETGGNSPVQEFTVPHQMKTATISGLKPGVDYTITVYAVTPGGYSGRNYGPISINYRTHHHHHH
notes: as for B1
- Kd [2]: 0.158 nM
- koff [2]: 0.00018 s⁻¹
- kon [2]: 1.1e+06 M⁻¹ s⁻¹
- % IR Binding at 10 µM [3]: 1%

B26: 338A05 (designed binder)
chain: VSDVPRDLEVVAATPTSLLISWSDSLKVSRYYRITYGETGGNSPVQEFTVPKQYHTATISGLKPGVDYTITVYAVTPSNIIGRHYGPISINYRTHHHHHH
notes: as for B1
- Kd [2]: 0.261 nM
- koff [2]: 0.00033 s⁻¹
- kon [2]: 1.3e+06 M⁻¹ s⁻¹
- % IR Binding at 10 µM [3]: 45%

The remaining lines, values ahead:

- binding result [5]: no binding (tested: 10 µM)
- Kd [6]: 0.034 nM
- koff [6]: 0.00019 s⁻¹
- kon [6]: 5.7e+06 M⁻¹ s⁻¹
- IC50, serum mediated proliferation of NCI-H929 cells [7]: ~0.1 nM
- Kd [8]: 0.023 nM
- koff [8]: 0.00016 s⁻¹
- kon [8]: 6.9e+06 M⁻¹ s⁻¹
B6: 385A08 (designed binder)
chain: B2 chain with T24A, A25R, Q29A, H53N, S54V, H55Y, K77R, M78F, R82Q
notes: FG loop optimized derivative of 338A06; also called clone 385A08; unmodified 385A08

- binding result [4]: binds
B13: 386H05 (designed binder)
chain: B2 chain with T24A, A25R, Q29A, H53N, S54V, H55Y, K77V, M78V
notes: as for B3

- binding result [9]: binds
B14: 386A07 (designed binder)
chain: B2 chain with T24A, A25R, Q29A, H53N, S54V, H55Y, K77L, M78V, D80N, R82G
notes: as for B3

- binding result [9]: binds
B15: 386A05 (designed binder)
chain: B2 chain with T24A, A25R, Q29A, H53N, S54V, H55Y, K77E, M78R
notes: as for B3

- binding result [9]: binds
B18: 385E01 (designed binder)
chain: B2 chain with T24A, A25R, Q29A, H53N, S54V, H55Y, K77A, M78V
notes: as for B3

- binding result [4]: binds
B19: 387A03 (designed binder)
chain: B2 chain with T24A, A25R, Q29A, H53N, S54V, H55Y, K77S, M78Y, R82W
notes: as for B3

- binding result [4]: binds
B20: 386F11 (designed binder)
chain: B2 chain with T24A, A25R, Q29A, H53N, S54V, H55Y, K77L, M78T, R82K
notes: as for B3

- binding result [9]: binds
B21: 385D05 (designed binder)
chain: B2 chain with T24A, A25R, Q29A, H53N, S54V, H55Y, K77R, M78E
notes: as for B3

- binding result [4]: binds
B22: 386F01 (designed binder)
chain: B2 chain with T24A, A25R, Q29A, H53N, S54V, H55Y, K77T, M78I
notes: as for B3

- binding result [9]: binds
B23: 387C02 (designed binder)
chain: B2 chain with T24A, A25R, Q29A, H53N, S54V, H55Y, K77G, M78V, D80N, R82G
notes: as for B3

- binding result [1]: binds
B27: 354G02 (designed binder)
chain: B26 chain with S23A, D24E, S25H, K27Q, K52R, Q53G, Y54V, H55Y
notes: as for B1
